The record followed here is PMC3091828.

Where two headings read alike, the source gives them in different places.

Assay [1] deals with CL-arrestin-2-L33C, bimane-labeled (UniProt P17870). The experiment in a line: fluorescence polarisation. Background: In fluorescence polarisation assays a small probe gives low polarisation when free and higher when bound to something large.
Assay [2] shares this target. Put plainly: fluorescence polarisation. This is another data set of the same source.

MBP-parkin, sequence (O60260 whole entry): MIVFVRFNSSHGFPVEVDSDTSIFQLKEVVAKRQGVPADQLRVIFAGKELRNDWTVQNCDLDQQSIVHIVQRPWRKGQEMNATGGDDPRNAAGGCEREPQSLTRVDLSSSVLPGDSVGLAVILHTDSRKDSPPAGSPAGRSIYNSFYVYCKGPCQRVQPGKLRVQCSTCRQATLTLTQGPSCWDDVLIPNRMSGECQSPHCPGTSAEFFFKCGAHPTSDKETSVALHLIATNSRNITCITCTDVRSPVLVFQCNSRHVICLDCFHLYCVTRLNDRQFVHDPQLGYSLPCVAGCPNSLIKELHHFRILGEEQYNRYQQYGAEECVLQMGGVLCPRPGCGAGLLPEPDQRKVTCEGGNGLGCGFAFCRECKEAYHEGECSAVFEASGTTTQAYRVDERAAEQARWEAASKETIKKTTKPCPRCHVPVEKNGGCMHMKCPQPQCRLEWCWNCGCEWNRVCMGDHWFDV

“MBP-parkin (from UniProt O60260 1-465) (enzyme)”: the Kd (commonly the free concentration of one partner at which half of the binding sites on the other are occupied at equilibrium, for simple one-to-one binding) worked out at 19 µM in assay [1] and 20.1 µM in assay [2].
